Experimental data as given in patent US12329814B2, “Combination of a substance modulating tumor immune microenvironment and immunotherapy for the treatment of cancer” (Boostimmune, Inc., priority 2022, dated 2025).

T1: extracellular TCTP (Mus musculus, UniProt P63028)
T1 construct: stimulated with conditioned supernatant of SL4 cells containing antibody 55F3 or control IgG; endogenous in cells; host or cells: SL4 mouse colon carcinoma cells (conditioned supernatant), applied to mouse peritoneal exudate cells
T1 sequence (P63028 1-172): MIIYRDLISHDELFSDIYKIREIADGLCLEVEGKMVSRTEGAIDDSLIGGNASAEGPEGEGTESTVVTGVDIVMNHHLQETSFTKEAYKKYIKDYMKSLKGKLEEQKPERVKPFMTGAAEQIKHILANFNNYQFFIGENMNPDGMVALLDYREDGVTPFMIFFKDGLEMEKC

B1: 55F3: Mouse monoclonal anti-TCTP antibody; VH SEQ ID NO: 25, VL SEQ ID NO: 29; CDRs SEQ ID NO: 1-6 (antibody, listed as Mus musculus)
VH: MRVLILLWLFTAFPGILSDVQLQESGPGLVKPSQSLSLTCTATGYSIASDYAWNWIRQFPGNKLEWMGYINYSGSTGYNPSLKSRISITRDTSKNQFFLQLNSVTTEDTATYYCARFEAGYWGQGTTLTVSSAKTTPPSVYPLAPGSAAQTNSMVTLGCLVKGYFPEPVT
VL: MDMRTPAQFLGILLLWFPGIKCDIKMTQSPSSMSASLGERVTITCKASQDINRYLSWFQQKPGKSPKTLIYRANRLVDGVPSRFSGSGSGQDYSLTISSLEYGDMGIYYCLQYNEFPLTFGAGTKLELKRADAAPTVSIFPPSSEQLTSGGASVVCFLN
B2: 1-2-4: Human monoclonal anti-TCTP antibody from CAMOUSE; VH SEQ ID NO: 28, VL SEQ ID NO: 32; CDRs SEQ ID NO: 19-24 (antibody, V domains shown)
VH: MDWTWRILFLVAAATGAHSQVQLVQSGAEVKKPGASVKVSCKASGYTFFSYAMHWVRQAPGQRLEWMGWINAGNGNTKYSQKFQDRVTITRDTSATTAYMELSSLRSEDTAVYYCASWVFDYWGQGTPVTVSS
VL: MRLLAQLLGLLMLWVPGSSGDIVMTQTPLSSLVTLGQPASISCRSSQSLVHRDGNTYLSWLQQRPGQPPRLLIYKISNRFFGVPDRFSGSGAGTDFTLKISRVEAEDVGVYYCMQATQFPHTFGQGTKLEIK
modifications: Variable region of antibody

Legend:
[1] = tested on: SL4 cells; assay: SL4 tumor treated with anti-TCTP antibody in combination with anti-PD-1 antibody; type: in vivo, C57BL/6 mice; conditions: 55F3 i.p. every day from Day 1 plus anti-PD-1 monoclonal antibody (BioLegend) day 10, compared with PD-1 antagonist antibody alone, FIG. 10
Experimental: This synergistic effect was also confirmed in the experiment using SL4 cells. SL4 cells were transplanted into C57BL/6 mice via subcutaneous injection, and thereafter, antibody 55F3 was intraperitoneally […] into the mice every day, starting from Day 1 after the transplantation. Ten days after the transplantation, an anti-PD-1 monoclonal antibody (BioLegend) was administered to the mice, and the tumor volume was then measured. As a result, it was confirmed that the effect of suppressing tumor proliferation is improved by the combined administration of an anti-TCTP antibody and a PD-1 antagonist antibody, compared with the case of single administration of a PD-1 antagonist antibody alone (FIG. 10).

[2] = tested on: B16F10 cells; assay: B16F10 tumor treated with anti-TCTP antibody in combination with anti-PD-1 antibody; type: in vivo, C57BL/6 mice; conditions: anti-TCTP 100 μg i.p. days 1, 4, 8, 11, 15, 18, 22 plus anti-PD-1 (BioXCell) 100 μg i.v. day 10, compared with checkpoint antibody alone, FIGS. 9A and 9B
Experimental: The influence of the combination of anti-TCTP antibodies with an anti-PD-1 antibody on tumor suppression was also studied. B16F10 (1×10^5 cells in 50 μL PBS) cells were subcutaneously inoculated into C57BL/6 mice (Day 1). An anti-PD-1 antibody (BioXCell; 100 μg in 100 μL PBS) was administered intravenously ten days after the inoculation, and anti-TCTP antibodies 55F3 and 1-2-4 (each 100 μg in 100 μL PBS) were administered intraperitoneally in the mice on days 1, 4, 8, 11, 15, 18, and 22. As a result, the effect of suppressing tumor proliferation is improved by the combined administration of an anti-TCTP antibody and a PD-1 or CTLA-4 antagonist antibody, compared with the case of single administration of a PD-1 or CTLA-4 antagonist antibody alone (FIGS. 9A and 9B).

[3] = tested on: MC38 tumors; assay: Flow cytometry of tumor-infiltrating immune cells, MC38 tumors, anti-TCTP and anti-PD-1 antibodies; type: in vivo, C57BL/6 mice; conditions: MC38, 15 days; 55F3 200 μg i.p. every 2 days and/or anti-PD-1 RMP1-14 10 mg/kg i.p. days 0, 3, 7, 10, 14; FIG. 11C
Experimental: (§1) Effect of the combination of anti-TCTP antibody and anti-PD-1 antibody on T cells and NK cells in the TIME was also studied. Tumor-infiltrating immune cells were collected from B16F10 and MC38 tumors treated with anti-TCTP antibody and/or anti-PD-1 antibody and were then analyzed by flow cytometry. B16F10 cells (5×10^5 cells) or MC38 cells (3×10^5 cells) were transplanted subcutaneously into C57BL/6 mice. Anti-PD-1 antibody RMP1-14 (BioXCell; 10 mg/kg) was administered intraperitoneally on days 0, 3, 7, 10, 14 after the inoculation, and anti-TCTP antibody 55F3 (200 μg in 200 μL PBS) was administered intraperitoneally in the mice every 2 days after the inoculation. After 15 days (MC38) or 12 days (B16F10) of transplantation, single cell suspensions were prepared from tumors and subjected to flow cytometry analysis.

[4] = target: T1, extracellular TCTP; assay: Cxcl1 mRNA in peritoneal exudate cells stimulated with SL4 conditioned supernatant (RT-qPCR); type: cell-based; conditions: PECs stimulated 2 hours with conditioned supernatant of SL4 cells containing antibody, vs control IgG; FIG. 6A
Experimental: (§2) Peritoneal exudate cells (PECs) (2×10^5 cells) were stimulated with conditioned supernatant of SL4 cells containing antibody 55F3 or control IgG, and after 2 hours of stimulation, Cxcl1 mRNA levels were determined by RT-qPCR. As a result of blockade of extracellular TCTP with antibody 55F3, the expression of Cxcl1 mRNA was suppressed (FIG. 6A). Subsequently, SL4 cells were transplanted into C57BL/6 mice via subcutaneous injection, and 55F3 or control IgG (200 μg/mouse) was then intraperitoneally administered to the mice every other day, starting from Day 1 after the transplantation, and the volume of the tumor was measured. As a result, the proliferation speed of SL4 tumor cells was decreased by administration of 55F3 (FIG. 6B), and the amount of PMN-MDSCs in the TIME was decreased (FIG. 6C).

[5] = tested on: SL4 TCTP KO+hTCTP tumor cells; assay: TCTP KI SL4 (TCTP KO+hTCTP) subcutaneous tumor in C57BL/6 mice treated with anti-TCTP antibodies; type: in vivo; conditions: 100 μg intraperitoneally on days 1, 4, 8, 11, vs PBS; FIG. 7
Experimental: HEK293Ta cells (3×10^6 cells) were transfected with pCSII-EF-MCS-IRES2-Venus-hTCTP lentiviral expression vector and its helper vectors (pMDLg/p.RRE and pCMV-VSV-G-RSV-Rev). After 48 hours of the transfection, culture supernatants were collected and filtered (0.45 μm; Millipore). TCTP KO SL4 cells from Example 1 (1×10^6 cells) were infected using the supernatant. After infection, GFP-positive human TCTP-expressing TCTP KO SL4 cells (hereafter TCTP KI SL4 cells) were sorted using FACSMelody cell sorter. TCTP KI SL4 cells (2×10^5 cells/100 μL PBS), TCTP KO SL4 cells (2×10^5 cells/100 μL PBS), or parental SL4 cells (2×10^5 cells/100 μL PBS) were inoculated into C57BL/6 mice. After cell inoculation, tumor volumes were measured over time.
TCTP KI SL4 cells (TCTP KO+hTCTP; 5×10^5 cells in 100 μL PBS) from example 3 were subcutaneously inoculated into C57BL/6 mice (Day 0). Anti-TCTP (100 μg in 100 μL PBS) antibodies were administered intraperitoneally into the mice on days 1, 4, 8, and 11. As a control, 100 μL of PBS was administered. Tumor size was measured on days 3, 6, 9, and 11. As a result, the proliferation speed of SL4 TCTP KO+hTCTP tumor cells was decreased by administration of 55F3 or 1-2-4 (FIG. 7).

[6] = tested on: SL4 tumor cells; assay: SL4 subcutaneous tumor in C57BL/6 mice treated with anti-TCTP antibody; type: in vivo; conditions: 200 μg/mouse intraperitoneally every other day from Day 1, vs control IgG
Experimental: as §2

[7] = tested on: B16F10 tumors; assay: Flow cytometry of tumor-infiltrating immune cells, B16F10 tumors, anti-TCTP and anti-PD-1 antibodies; type: in vivo, C57BL/6 mice; conditions: B16F10, 12 days; 55F3 200 μg i.p. every 2 days and/or anti-PD-1 RMP1-14 10 mg/kg i.p. days 0, 3, 7, 10, 14; FIG. 11C
Experimental: as §1

Molecule	effect of suppressing tumor proliferation, combined administration with anti-PD-1 antibody [1]	effect of suppressing tumor proliferation, combined administration with anti-PD-1 antibody [2]	CD8+ cells in tumor (abundance ratio) [3]	expression of Cxcl1 mRNA [4]	proliferation speed of SL4 TCTP KO+hTCTP tumor cells (tumor size) [5]	proliferation speed of SL4 tumor cells (tumor volume) ([6]; FIG. 6B)	amount of PMN-MDSCs in the TIME ([6]; SL4 tumor, FIG. 6C)	CD8+ cells in tumor (abundance ratio) [7]
B1	improved	improved	increased	suppressed	decreased	decreased	decreased	increased
B2	–	improved	–	–	decreased	–	–	–
